Measured values taken from article doi:10.1101/634592.

Legend:
[1] = molecular target: PI4KB (isoform 2, E. coli produced, non-phosphorylated) (human) (UniProt Q9UBF8); assay: HDX-MS
[2] = molecular target: PI4KB phosphorylated at Ser496 (E. coli produced, PKA treated) (human) (UniProt Q9UBF8); assay: HDX-MS

c10orf76 (untagged, E. coli produced) (from UniProt Q5T2E6 1-689) (natural protein)
Kd [1]: 30 nM | Kd [2]: 85 nM
